For this experiment, the target named is T1, TRAF2 TRAF-C domain (human TRAF2 residues 315-501), tag cleaved, for crystallization (human, UniProt Q12933 315-501).
T1 sequence (looked up): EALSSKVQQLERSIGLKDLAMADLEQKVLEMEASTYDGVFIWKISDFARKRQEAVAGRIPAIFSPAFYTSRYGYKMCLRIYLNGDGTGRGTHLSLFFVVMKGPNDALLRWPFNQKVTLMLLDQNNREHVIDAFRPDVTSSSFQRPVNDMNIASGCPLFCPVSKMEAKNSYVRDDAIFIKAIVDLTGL
Put plainly: crystal structure. Conditions: both partners purified.

Where no end group is shown, it is not given here. [ ]: non-standard residue; d: D form. SeMet = C[Se]CC[C@H](N)C(=O)O

Turning to RATATIP[SeMet]QASLPFGW, the binding result is listed as “binds”.
